B1: Complement factor H (Homo sapiens), P08603-1 (parent)
chain: MRLLAKIICLMLWAICVAEDCNELPPRRNTEILTGSWSDQTYPEGTQAIYKCRPGYRSLGNVIMVCRKGEWVALNPLRKCQKRPCGHPGDTPFGTFTLTGGNVFEYGVKAVYTCNEGYQLLGEINYRECDTDGWTNDIPICEVVKCLPVTAPENGKIVSSAMEPDREYHFGQAVRFVCNSGYKIEGDEEMHCSDDGFWSKEKPKCVEISCKSPDVINGSPISQKIIYKENERFQYKCNMGYEYSERGDAVCTESGWRPLPSCEEKSCDNPYIPNGDYSPLRIKHRTGDEITYQCRNGFYPATRGNTAKCTSTGWIPAPRCTLKPCDYPDIKHGGLYHENMRRPYFPVAVGKYYSYYCDEHFETPSGSYWDHIHCTQDGWSPAVPCLRKCYFPYLENGYNQNYGRKFVQGKSIDVACHPGYALPKAQTTVTCMENGWSPTPRCIRVKTCSKSSIDIENGFISESQYTYALKEKAKYQCKLGYVTADGETSGSITCGKDGWSAQPTCIKSCDIPVFMNARTKNDFTWFKLNDTLDYECHDGYESNTGSTTGSIVCGYNGWSDLPICYERECELPKIDVHLVPDRKKDQYKVGEVLKFSCKPGFTIVGPNSVQCYHFGLSPDLPICKEQVQSCGPPPELLNGNVKEKTKEEYGHSEVVEYYCNPRFLMKGPNKIQCVDGEWTTLPVCIVEESTCGDIPELEHGWAQLSSPPYYYGDSVEFNCSESFTMIGHRSITCIHGVWTQLPQCVAIDKLKKCKSSNLIILEEHLKNKKEFDHNSNIRYRCRGKEGWIHTVCINGRWDPEVNCSMAQIQLCPPPPQIPNSHNMTTTLNYRDGEKVSVLCQENYLIQEGEEITCKDGRWQSIPLCVEKIPCSQPPQIEHGTINSSRSSQESYAHGTKLSYTCEGGFRISEENETTCYMGKWSSPPQCEGLPCKSPPEISHGVVAHMSDSYQYGEEVTYKCFEGFGIDGPAIAKCLGEKWSHPPSCIKTDCLSLPSFENAIPMGEKKDVYKAGEQVTYTCATYYKMDGASNVTCINSRWTGRPTCRDTSCVNPPTVQNAYIVSRQMSKYPSGERVRYQCRSPYEMFGDEEVMCLNGNWTEPPQCKDSTGKCGPPPPIDNGDITSFPLSVYAPASSVEYQCQNLYQLEGNKRITCRNGQWSEPPKCLHPCVISREIMENYNIALRWTAKQKLYSRTGESVEFVCKRGYRLSSRSHTLRTTCWDGKLEYPTCAKR
partner: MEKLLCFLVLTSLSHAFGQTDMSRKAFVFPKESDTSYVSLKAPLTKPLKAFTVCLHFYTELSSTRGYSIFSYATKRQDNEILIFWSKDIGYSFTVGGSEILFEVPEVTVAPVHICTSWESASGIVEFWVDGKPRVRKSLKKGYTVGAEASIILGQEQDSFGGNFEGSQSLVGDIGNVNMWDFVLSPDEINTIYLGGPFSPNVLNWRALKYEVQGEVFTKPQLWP
B2: Complement factor H (Homo sapiens), P08603-2 (parent)
chain: MRLLAKIICLMLWAICVAEDCNELPPRRNTEILTGSWSDQTYPEGTQAIYKCRPGYRSLGNVIMVCRKGEWVALNPLRKCQKRPCGHPGDTPFGTFTLTGGNVFEYGVKAVYTCNEGYQLLGEINYRECDTDGWTNDIPICEVVKCLPVTAPENGKIVSSAMEPDREYHFGQAVRFVCNSGYKIEGDEEMHCSDDGFWSKEKPKCVEISCKSPDVINGSPISQKIIYKENERFQYKCNMGYEYSERGDAVCTESGWRPLPSCEEKSCDNPYIPNGDYSPLRIKHRTGDEITYQCRNGFYPATRGNTAKCTSTGWIPAPRCTLKPCDYPDIKHGGLYHENMRRPYFPVAVGKYYSYYCDEHFETPSGSYWDHIHCTQDGWSPAVPCLRKCYFPYLENGYNQNYGRKFVQGKSIDVACHPGYALPKAQTTVTCMENGWSPTPRCIRVSFTL
partner: B1 partner

Variants of: B1
Details: with crp_human CRP

Which “effect of a mutation on the interaction” value does the source give for Y402H here?
Its value is “decreasing interaction strength”.

Variants of: B2
Details: with crp_human CRP

Y402H was tested. Which “effect of a mutation on the interaction” value did it give?
Its value is “decreasing interaction strength”.

Source: IntAct's records for PubMed 17399790
